The labels stand for the following.
B1: MtbCsm6 (natural protein)
chain: MILFSPIGTADPITALGDGPMLHIVRHYRPIVVVLFLSAEIAAFENADRRYSAAITRLAPETDVRIVTYTNPSVHRFDLFVPVFRNHLVELSAEFPDRTILLNTSSGTPAMQAALVAINVFGIPRTTAVQVSTPARALSKPGDRESPDAYDLELMWDANDDNQPGAPNRCFEATSAALGALLERANLKQLIVSYDYSAAVTIAADSRLPDQVSNLIRGAMHRSRLEHLVAPKFFKDTAFTYDPANKVAEYISALALLAKREQWAEFARSATPAITIVLRAAVAKHLPEDRYLDDMGRVDRRKLEREPEIRCALKHPPKSPNAEWYLYTKDWLALLRQFAPDRVGALEVLGRFESRVRNTAAHEIVSISEDRITKDGGLLPEQLLKILARETGADLTLYDRLNDEIIRQIDMAPLG
B2: MtbCsm2 (natural protein)
chain: MSVIQDDYVKQAEVIRGLPKKKNGFELTTTQLRVLLSLTAQLFDEAQQSANPTLPRQLKEKVQYLRVRFVYQSGREDAVKTFVRNAKLLEALEGIGDSRDGLLRFCRYMEALAAYKKYLDPKDK
B3: MtbCsm3 (natural protein)
chain: MTTSYAKIEITGTLTVLTGLQIGAGDGFSAIGAVDKPVVRDPLSRLPMIPGTSLKGKVRTLLSRQYGADTETFYRKPNEDHAHIRRLFGDTEEYMTGRLVFRDTKLTNKDDLEARGAKTLTEVKFENAINRVTAKANLRQMERVIPGSEFAFSLVYEVSFGTPGEEQKASLPSSDEIIEDFNAIARGLKLLELDYLGGSGTRGYGQVKFSNLKARAAVGALDGSLLEKLNHELAAV

The record followed here is publication PMC10715591, “EspB and HtpG interact with the type III-A CRISPR/Cas system of Mycobacterium tuberculosis” (Frontiers in Molecular Biosciences, 2023).

T1 sequence (P9WJD9 whole entry): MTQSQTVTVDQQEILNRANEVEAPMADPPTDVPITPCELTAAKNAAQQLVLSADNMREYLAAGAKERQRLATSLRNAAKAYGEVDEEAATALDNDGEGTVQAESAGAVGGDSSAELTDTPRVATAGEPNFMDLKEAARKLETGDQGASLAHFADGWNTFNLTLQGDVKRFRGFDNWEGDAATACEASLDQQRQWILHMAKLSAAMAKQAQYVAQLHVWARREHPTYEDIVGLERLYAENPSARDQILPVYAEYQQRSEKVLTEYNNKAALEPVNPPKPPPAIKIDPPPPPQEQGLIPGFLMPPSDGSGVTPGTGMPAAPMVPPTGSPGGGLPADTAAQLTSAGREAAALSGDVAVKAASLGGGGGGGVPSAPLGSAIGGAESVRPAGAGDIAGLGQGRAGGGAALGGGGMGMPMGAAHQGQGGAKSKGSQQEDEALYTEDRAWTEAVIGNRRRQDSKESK

This assay addresses T1, ESX-1 secretion-associated protein EspB (Mycobacterium tuberculosis H37Rv, UniProt P9WJD9 1-460).
T1 construct: also called Esx-1 secreted protein B
The experiment in a line: SPR; Biacore 8K, 25°C; EspB covalently immobilised on a CM5 chip; analytes injected at 25-3,200 nM, 30 uL/min for 2 min; global fit to a 1:1 mass transport model. The following applies: both partners purified. On the technique in general: SPR reads the build-up and loss of mass on a sensor chip optically.
Broadly, the Kd is a measure of binding affinity in units of concentration. Low values mean a tighter complex, high ones a looser complex. As usually defined, the koff is a measure of how fast the partners let go of each other. For orientation: kon means the rate constant with which the complex forms. For the molecule B1, binding was put at a Kd of 0.0316 nM, the koff amounted to 5.83e-07 s⁻¹ and the kon came out at 18400 M⁻¹ s⁻¹.
As for B2, the dissociation constant (Kd) stood at 0.125 nM, the koff is 8.3e-07 s⁻¹ and the on-rate constant (kon) was 6660 M⁻¹ s⁻¹.
On the same counts, the results for B3 are 1.9 nM, 0.000462 s⁻¹ and 243000 M⁻¹ s⁻¹.
